Molecular target: T1, 285bZIP E287A (human, UniProt P16220-1 285-339, C300S;C310S;C337S;E287A)
T1 sequence: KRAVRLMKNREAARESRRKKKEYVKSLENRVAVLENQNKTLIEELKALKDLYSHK
Assay: stopped-flow fluorescence (koff/kon); 10 mM Mg2+; 10 mM MES pH 6.5, 150 mM NaCl, 10 mM MgCl2, 0.05% Tween-20, 25 C; NMR: 10 mM Tris-d11, 150 mM NaCl, 10 mM MgCl2, 1 mM NaN3, 5% D2O (NOE at 25 C)
Conditions: protein: recombinant; tags: extra N-terminal Gly; chain copies: 2; label: 5' Alexa Fluor 488; hairpin (self-annealing, 11 bp stem, CCCC loop)

Binder: CCTGACGTCAGCCCCCTGACGTCAGG (structured_DNA) [AlexaFluor488-CREh]
- Kd: 1.89 ± 0.11 nM
